Entries after “also recorded” stand apart in the source; their conditions may differ.
Experiments:
[1] = target: T1, Human fibronectin lacking the ED-B domain (h6789) (Homo sapiens, UniProt P02751); assay: concentration dependent ELISA, negative control fibronectin fragment without ED-B; type: binding
T1 construct: fibronectin fragment 6789 without ED-B

[2] = tested on: human fetal lung fibroblast cells (Wi38); assay: binding to cell culture cells, Wi38; type: cell-based; settings: immunofluorescence
Procedure: (§1) The binding of, for example, variant 1041-D11 to cell culture cells was tested. Different cell culture cells were analysed, including normal human fetal lung fibroblast cells having high expression levels of ED-B (Wi38 cells), a mouse embryonic fibroblast cell line (Balb 3T3); a stromal cell line, derived from mouse bone marrow (ST-2) monocytes/macrophages (RAW 264.7), NHDF cells and murine fibroblast cells (LM).
The negative control cell type NHDF are primary normal fibroblast cells, which express low levels of EDB-fibronectin (data not shown).
The negative control cell type NHDF is primary normal fibroblast cells, which express low levels of EDB-fibronectin. The cells were plated in chamber-slides (NUNC, 60000 cells/ml). To analyses the binding potential the cells were fixed with 100% MeOH for 5 min at −20° C. To block unspecific binding, the cells were incubated with 5% Horse-serum 1 h 37° C. The cells were tested with the variant 1041-D11, an ED-B specific antibody FV28 CH4/F1 as positive control or UB—2 as negative control with different concentrations 1 h RT. The proving occurred about an incubation with rabbit-a-Strep-Tag-IgG (obtained from GenScript A00875, 1:500) for 1 h and incubation with a-rabbit-IgG*Alexa488-AK (obtained from Invitrogen A11008, 1:1000) for 1 h. The nuclei were stained with DAPI. […] The first 2 lines show the variant and positive control on Wi38-cell line.

[3] = target: T2, ED-B free fibronectin fragment 6789 (Homo sapiens, UniProt P02751); assay: complex-formation analysis by SE-HPLC with 6789; type: binding; settings: 0.72 nmol each, 1 h RT
T2 construct: fibronectin fragment 6789 without ED-B
T2 sequence (P02751 1089-1449 isoform P02751-1): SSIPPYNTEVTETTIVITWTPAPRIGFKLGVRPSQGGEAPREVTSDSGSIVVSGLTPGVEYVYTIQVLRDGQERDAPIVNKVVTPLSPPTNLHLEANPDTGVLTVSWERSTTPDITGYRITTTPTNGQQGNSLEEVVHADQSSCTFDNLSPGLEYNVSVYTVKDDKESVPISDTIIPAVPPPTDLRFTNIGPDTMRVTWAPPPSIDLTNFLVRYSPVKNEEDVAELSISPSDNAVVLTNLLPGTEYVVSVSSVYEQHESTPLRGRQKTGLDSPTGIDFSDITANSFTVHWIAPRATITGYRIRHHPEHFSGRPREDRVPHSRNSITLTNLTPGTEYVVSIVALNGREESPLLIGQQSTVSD
Procedure: (§2) For the analysis of complex formation, Tricorn Superdex 75 5/150 GL columns (GE-Healthcare) (V=3 ml) was used, protein amount of 50 μl was applied. Further conditions: buffer: 1×PBS, pH 7.3, flow-rate: 0.3 ml/min, run: 45 min (injection of sample: after 15 min). Condition: 0.72 nmol 1041-D11 protein+0.72 nmol ED-B (herein referred to 67B89 or also as a negative control 6789) incubated for 1 h at RT; then applied to column for analysis of complex-formation. In FIG. 14, only the variant is shown in black, only the target ED-B is shown in blue, the variant binding building a complex with ED-B in pink.

[4] = tested on: murine Balb 3T3-cells; assay: binding to cell culture cells, Balb 3T3; type: cell-based; settings: 1, 10, 50 nM
Procedure: as §1
(§3) Similar experiments were performed using different cells types, for example Balb3T3 (ATCC, Kat-Nr. 30-2002), Raw (Lonza, Kat-Nr. BE12-115F/U1), ST-2 (Lonza, Kat-Nr. BE12-115F/U1).

[5] = target: ED-B containing fibronectin fragment (67B89) (Homo sapiens, UniProt P02751); assay: label-free interaction assay using Biacore; type: binding; settings: 1:1-Langmuir-fitting
ED-B containing fibronectin fragment (67B89), sequence (P02751 32-2477): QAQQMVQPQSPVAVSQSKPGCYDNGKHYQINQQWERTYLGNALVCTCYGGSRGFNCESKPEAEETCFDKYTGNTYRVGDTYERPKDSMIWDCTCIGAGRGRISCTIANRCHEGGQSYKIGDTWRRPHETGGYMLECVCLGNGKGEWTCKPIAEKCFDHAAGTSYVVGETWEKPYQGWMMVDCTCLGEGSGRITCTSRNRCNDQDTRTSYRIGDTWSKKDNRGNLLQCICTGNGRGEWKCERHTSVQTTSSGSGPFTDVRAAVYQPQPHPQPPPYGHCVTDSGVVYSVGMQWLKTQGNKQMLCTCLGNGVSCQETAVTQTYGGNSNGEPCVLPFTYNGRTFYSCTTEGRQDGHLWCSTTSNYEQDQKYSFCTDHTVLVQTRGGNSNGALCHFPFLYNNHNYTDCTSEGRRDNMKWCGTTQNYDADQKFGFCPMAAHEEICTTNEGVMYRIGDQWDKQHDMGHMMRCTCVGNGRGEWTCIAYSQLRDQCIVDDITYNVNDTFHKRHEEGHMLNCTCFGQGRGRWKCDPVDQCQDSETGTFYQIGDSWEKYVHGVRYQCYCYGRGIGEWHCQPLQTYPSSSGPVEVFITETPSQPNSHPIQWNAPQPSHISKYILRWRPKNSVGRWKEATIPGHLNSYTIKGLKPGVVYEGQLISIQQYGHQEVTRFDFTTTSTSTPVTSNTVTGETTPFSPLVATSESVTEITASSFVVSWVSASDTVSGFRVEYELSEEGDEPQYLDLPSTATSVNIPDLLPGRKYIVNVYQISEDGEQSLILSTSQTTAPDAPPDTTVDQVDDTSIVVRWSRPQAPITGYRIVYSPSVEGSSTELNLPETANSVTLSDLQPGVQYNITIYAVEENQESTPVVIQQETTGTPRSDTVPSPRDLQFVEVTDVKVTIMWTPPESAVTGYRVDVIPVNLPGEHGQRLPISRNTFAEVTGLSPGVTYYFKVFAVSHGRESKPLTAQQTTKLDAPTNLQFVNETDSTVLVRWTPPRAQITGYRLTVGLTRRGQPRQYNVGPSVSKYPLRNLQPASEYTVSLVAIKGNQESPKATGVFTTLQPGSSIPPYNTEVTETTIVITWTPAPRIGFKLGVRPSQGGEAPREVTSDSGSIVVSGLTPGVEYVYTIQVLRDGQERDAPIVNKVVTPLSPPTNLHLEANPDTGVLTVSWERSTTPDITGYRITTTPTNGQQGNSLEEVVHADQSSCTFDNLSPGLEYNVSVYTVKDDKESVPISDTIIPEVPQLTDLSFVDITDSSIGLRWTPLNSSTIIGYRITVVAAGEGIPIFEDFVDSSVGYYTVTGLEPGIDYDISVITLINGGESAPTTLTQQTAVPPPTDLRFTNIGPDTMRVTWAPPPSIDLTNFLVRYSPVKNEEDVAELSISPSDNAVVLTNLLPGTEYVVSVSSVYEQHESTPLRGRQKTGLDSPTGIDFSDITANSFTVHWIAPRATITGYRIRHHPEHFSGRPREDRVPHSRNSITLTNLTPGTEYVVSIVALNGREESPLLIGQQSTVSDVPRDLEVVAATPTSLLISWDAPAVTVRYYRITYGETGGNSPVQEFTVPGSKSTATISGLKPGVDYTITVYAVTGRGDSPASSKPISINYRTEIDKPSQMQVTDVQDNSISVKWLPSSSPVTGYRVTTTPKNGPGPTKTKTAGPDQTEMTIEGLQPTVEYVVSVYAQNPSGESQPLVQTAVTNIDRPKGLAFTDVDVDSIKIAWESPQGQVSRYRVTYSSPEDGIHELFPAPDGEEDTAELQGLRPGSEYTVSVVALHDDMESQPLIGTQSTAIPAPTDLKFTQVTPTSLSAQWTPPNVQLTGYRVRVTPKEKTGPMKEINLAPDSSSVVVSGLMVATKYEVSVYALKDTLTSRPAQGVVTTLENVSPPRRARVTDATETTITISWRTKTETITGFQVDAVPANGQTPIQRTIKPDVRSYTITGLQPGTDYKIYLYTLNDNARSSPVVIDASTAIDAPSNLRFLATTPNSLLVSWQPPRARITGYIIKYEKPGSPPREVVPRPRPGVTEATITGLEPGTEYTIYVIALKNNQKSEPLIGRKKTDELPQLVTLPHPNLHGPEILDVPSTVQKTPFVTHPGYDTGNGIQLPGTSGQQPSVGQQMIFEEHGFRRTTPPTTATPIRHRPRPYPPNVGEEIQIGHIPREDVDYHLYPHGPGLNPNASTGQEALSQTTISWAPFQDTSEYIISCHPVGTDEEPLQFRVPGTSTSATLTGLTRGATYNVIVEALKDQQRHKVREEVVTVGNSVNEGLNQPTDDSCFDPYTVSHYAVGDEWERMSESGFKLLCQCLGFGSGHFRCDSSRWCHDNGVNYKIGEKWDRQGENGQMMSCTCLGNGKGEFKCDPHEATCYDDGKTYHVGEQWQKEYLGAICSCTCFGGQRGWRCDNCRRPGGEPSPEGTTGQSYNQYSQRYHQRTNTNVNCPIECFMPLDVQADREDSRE
Procedure: Different concentrations of the variant were analyzed (for example, 0-200 nM of the variant, preferably 1041-D11) for binding to an ED-B containing fibronectin fragment (referred to as 67B89) immobilized on a CM5-chip (Biacore) using methods known to those skilled in the art. The obtained data were processed via the BIAevaluation software and 1:1-Langmuir-fitting. The kinetic binding constants were kon=7.6*10^5 M^−1 s^−1; koff=7.7*10^−4 s^−1. […]

[6] = tested on: monocytes/macrophages (RAW 264.7); assay: binding to cell culture cells, Raw; type: cell-based; settings: data not shown
Procedure: as §1, §3

[7] = target: T3, ED-B in F9 tumor vasculature (Mus musculus, UniProt P11276); assay: immunohistochemistry on F9 tumor tissue sections; design: species or system mice; settings: seven samples
T3 construct: 1041-D11 specifically decorates the vasculature in tissue sections from F9 tumors; from tissue; host or cells: F9 tumor tissue sections from mice
Procedure: F9 tumor tissues from seven samples were evaluated. […] ED-B is a highly specific marker for tumor vasculature. The target protein EDB is located on the abluminal side of the vessels. 1041-D11 specifically decorates the vasculature in tissue sections from F9 tumors. […] Thus, fusion proteins based on modified ubiquitin specifically binding to ED-B are suitable an ED-B based targeted therapy for cancer.

[8] = target: immobilized ED-B containing fibronectin fragment (67B89) (Homo sapiens, UniProt P02751); assay: competitive concentration dependent ELISA; type: binding; settings: in the presence of increasing amounts of free target
immobilized ED-B containing fibronectin fragment (67B89), sequence (P02751 32-2477): as above
Procedure: Competitive concentration dependent ELISAs analyzed the binding of ubiquitin variant 1041-D11 to immobilized ED-B containing fibronectin fragment […] in the presence of increasing amounts of free target. Conditions of the ELISA were as described for Example 5A, except that 1041-D11 protein was preincubated with ED-B (67B89) (0 μM-10 μM) or also with negative control 6789 (0 μM-10 μM) for 1 h and subsequently the mixture was given to the target 67B89 that was placed on a Medisorp-plate; following this, the variant was detected by the corresponding antibody (anti-Ubiquitin-Fab-POD; dilution 1:6500).

[9] = target: ED-B (67B89) (Homo sapiens, UniProt P02751); assay: concentration dependent ELISA analyzing serum-stability of binding activity; settings: 1 h at 37° C. in mouse or rat serum
ED-B (67B89), sequence (P02751 32-2477): as above
Procedure: The ELISA is performed using procedures well known in the art and as described above (Example 5A and 5B). ED-B (here referred to as 67B89) is coated to microtiter plates, the variant is bound to ED-B and detected by a specific ubiquitin-antibody (Anti-Ubi-Fab-POD). The variant in this assay is treated in different ways: the variant is incubated in mouse serum for 1 h at 37° C. (see in FIG. 13, circles in blue); the variant is incubated in rat serum for 1 h at 37° C. (in FIG. 13, circles in red); or the variant is incubated PBS for 1 h at 37° C. (in FIG. 13, circles in black).

[10] = tested on: murine ST-2-cells; assay: binding to cell culture cells, ST-2; type: cell-based; settings: 1, 10, 50 nM
Procedure: as §1, §3

[11] = tissue panel staining (48 tissues, FDA relevant panel)
[12] = target: fibronectin fragment 67B89 (soluble ED-B) (Homo sapiens, UniProt P02751); assay: complex-formation analysis by SE-HPLC with 67B89; type: binding; settings: 0.72 nmol each, 1 h RT
fibronectin fragment 67B89 (soluble ED-B), sequence (P02751 32-2477): as above
Procedure: as §2

[13] = tested on: L929 cells; assay: L929 apoptosis assay (TNFα activity); type: cell-based; settings: actinomycinD sensitized L929 cells, 48 h; listed as free cytokine; read-out: EC50 value, corresponding TNFα (free cytokine) tested in parallel
Procedure: The physiological TNFα-activity of TNFα-modified ubiquitin based ED-B binding fusions has been determined using the L929 apoptosis assay (Flick et al., 1984 J. Immunol. Methods. 68:167-175). In this assay, TNF-alpha efficiently stimulates cell death in actinomycinD sensitized cells at EC50 values in the picomolar range.
Cells have been resuspended in medium containing FBS and antibiotics. A cell suspension of 100 μl of a densitiy of 3.5×10^5 cells/ml has been seeded into the wells of a 96 well standard cell culture plate followed by over night incubation in a humidified CO2 incubator. Thereafter, the culture medium has been removed and 50 μl of medium containing FBS, ActinomycinD and antibiotics has been added to each well followed by a further 30 min incubation time. Thereafter, 50 μl of the test items, TNFα-modified ubiquitin based ED-B binding-fusions or the human recombinant TNFαcontrol, at an appropriate concentration range of between 10^−7 and 10^−18 M, have been added. After a further 48 h incubation time the metabolic activity as a measure of cell survival was determined using WST-1 reagent (Roche).
Per test item at least three independent experiments have been conducted, each of them in triplicates. […]
The quantitative evaluation is based on the EC50-value, i.e. the value according to the test item concentration promoting the survival of half of the cells.

T1 sequence (P02751 1089-1449 isoform P02751-1 limits assumed): as the sequence (P02751 1089-1449 isoform P02751-1) above

Substance | binding to negative control fibronectin fragment without ED-B (6789) [1] | binding to vital Wi38 cells [2] | binding to fixed Wi38 cells ([2]; 58.7 nM and 587 nM) | complex formation with 6789 [3] | binding to fixed murine Balb 3T3-cells [4] | koff [5] | kon [5] | binding to monocytes/macrophages (Raw) [6] | staining of F9 tumor tissue sections [7] | IC50 [8] | influence of blood serum on binding to ED-B [9] | binding to fixed murine ST-2-cells [10] | unspecific staining in 48 tissues of FDA relevant panel [11] | complex formation with 67B89 [12] | EC50 [13]
1041-D11: hetero-dimeric ubiquitin variant: K6W, L8W, K63R, E64K, S65F, T66P; second module Q2R, K6T, L8Q, Q62W, K63S, E64N, S65W, T66E | no binding | binds to vital Wi38 cells with high specificity | binds to fixed Wi38 cells with high specificity | no significant binding; also recorded: builds no complex | binds to murine Balb 3T3 cells with high specificity | 0.00077 s⁻¹ | 760000 M⁻¹ s⁻¹ | No binding | ED-B specific vascular staining | 140 nM | not significantly influenced | binds to murine Balb ST-2 cells with high specificity | no unspecific staining | formation of a complex; also recorded: builds a complex | –
TNFα [reference compound] | – | – | – | – | – | – | – | – | – | – | – | – | – | – | 0.00314 ± 0.00359 nM
